Data published in the supplement of paper PMC10567573.
± gives the standard deviation.

Assay: protein stability index of a GFP-peptide fusion (GPS, HEK-293T) (PSI 1-6); higher = more stable
[1] = treatment: DMSO, c terminus: a fixed tail appended
[2] = treatment: MLN4924 1 uM, 8 h, c terminus: a fixed tail appended
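Note: 24-mer peptide tiles fused after GFP, lentivirally expressed, FACS-sorted into six equal bins by GFP/DsRed ratio, decoded by Illumina sequencing, PSI is the read-weighted mean bin number.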

Sequence | protein stability index [1] | protein stability index [2] | protein stability index (treatment: DMSO, c terminus: native) | protein stability index (treatment: MLN4924 1 uM, 8 h, c terminus: native)
FKDEYKSENIKLREENEKLRLENS [CCDC89] | 5.25 ± 0.15 | 5.2 ± 0.15 | – | –
LKNGSMGSPVNQQPKKNNVMARTR [FAM219A] | 3.96 ± 0.32 | 4.13 ± 0.27 | – | –
LQIYQYVPKDQRLQAIKAAIMLLP [DLC1] | 2.64 ± 0.62 | 2.41 ± 0.58 | – | –
VSQHWATWALYNLVSVYPDKYCPL [ZER1] | 3.07 ± 0.34 | 2.74 ± 0.41 | – | –
KPEEPPQNLLREKIMKLPLPESLK [PCMTD1] | 4.57 ± 0.43 | 4.76 ± 0.13 | – | –
CWSFYGQGRKIAEVCCTSIVYATE [KCTD13] | 2.88 ± 0.6 | 2.97 ± 0.79 | – | –
MAHVDFRPPAYSPAQRSHTYTHGL | 2.8 ± 0.25 | 2.88 ± 0.32 | – | –
TTLEIHNTEERQKRQVTHFQFLSW [PTPN9] | 2.28 ± 0.41 | 2.78 ± 0.59 | – | –
LLPLQREPLYNWQATKASLKERFA [BTBD1] | 2.8 ± 0.22 | 2.82 ± 0.2 | – | –
RRWGKRKNKPKMNYEKLSRGLRYY [ETS1] | 2.44 ± 0.33 | 2.68 ± 0.38 | – | –
QLVLAYDYSREVNTTEELEALITD [FEM1A] | 3.53 ± 0.28 | 3.8 ± 0.34 | – | –
YTVRAPVGVAGLISPWNLPLYLLT [ALDH8A1] | 2.49 ± 0.47 | 2.14 ± 0.07 | – | –
IHPKSIDLDNYFTARRLLSQVRAL [NFE2L1] | 2.25 ± 0.32 | 2.54 ± 0.18 | – | –
TPPETKPDPPVNFLRQKVLSLPLP [PCMTD2] | 3.74 ± 0.24 | 3.85 ± 0.22 | – | –
LLWSDPADNKIVSHLLVAEPEKIY [ESRRG] | 2.36 ± 0.3 | 2.55 ± 0.16 | – | –
VKETGYFFIYGQVLYTDKTYAMGH [TNFSF13B] | 2.86 ± 1.5 | 2.41 ± 0.86 | – | –
NAMTCEGCKGFFRRSMKRKALFTC [VDR] | 2.38 ± 0.36 | 2.22 ± 0.6 | – | –
FYSTSSGLANGLQLLCPWAPLSGP [VENTX] | 2.88 ± 0.4 | 2.54 ± 0.55 | – | –
EISEAFTSTGFDRHTSPVFSPANP [BCL2L13] | 3.9 ± 0.24 | 3.99 ± 0.25 | – | –
TLHGNVCSFCKRAFPSGHLLDAHI [ZNF511] | 2.81 ± 0.27 | 2.95 ± 0.46 | – | –
CLRDDVVFFIYLYQRWIYRVDPTR [CLPTM1] | 2.77 ± 0.35 | 2.81 ± 0.48 | – | –
MASDTPESLMALCTDFCLRNLDGT [ZER1] | 3.88 ± 0.14 | 3.43 ± 0.41 | – | –
PNALIASLALGDLIYVVIDLPINV [EDNRA] | 3.12 ± 0.42 | 3.03 ± 0.35 | – | –

Sequence | protein stability index [1] | protein stability index [2] | protein stability index (treatment: DMSO, c terminus: native) | protein stability index (treatment: MLN4924 1 uM, 8 h, c terminus: native)
MMGLAQIYKKYALQSAAGKDAAKQ [PDS5B] | 2.8 ± 0.27 | 3.23 ± 0.1 | – | –
LAAVAWVGQQVHNLLLTYLIVTSL [ARL6IP1] | 3.32 ± 0.44 | 3.3 ± 0.53 | – | –
DAGPMVVHCSAGVGRTGCFIVIDA [PTPRD] | 2.73 ± 1.3 | 2.7 ± 0.76 | – | –
CALGDHGCEHSCVSSEDSFVCQCF [MATN2] | 4.25 ± 0.35 | 4.33 ± 0.3 | – | –
DAMLKEASGPINFTMFLNLFGEKL [MYL5] | 2.23 ± 0.55 | 2.27 ± 0.28 | – | –
QLQELLHHCDDHLSLYQLSLERGT [RSAD1] | 2.34 ± 0.24 | 2.58 ± 0.34 | – | –
DDIKESLESEGKNSKKEEPQELLQ [ATE1] | 5.65 ± 0.2 | 5.61 ± 0.13 | – | –
EKQLAKKEQSKELQMKLEKLREKE [FAM50A] | 5.34 ± 0.35 | 5.17 ± 0.39 | – | –
VPWSQCLQNFLLHGTKNVTNSSSL [WSB1] | 2.19 ± 0.21 | 2.19 ± 0.24 | – | –
GGVMYISGGITHDTFQKELMCFDP [KLHL13] | 2.23 ± 0.48 | 2.33 ± 0.54 | – | –
SPPSSSAASSYSFSDLNSTRGDAD [EMD] | 5.12 ± 0.29 | 4.98 ± 0.2 | – | –
FKRSVRRNLSYTCRANRNCPIDQH [NR2F2] | 2.71 ± 0.17 | 2.63 ± 0.33 | – | –
GRNHTPFLGHHSFSVRPGTEATIS [SCNN1D] | 3.65 ± 0.14 | 3.78 ± 0.25 | – | –
RSHPDNAIPIKSWFSDPSDTALLN [CTDNEP1] | 3.73 ± 0.18 | 3.87 ± 0.18 | – | –
SSRGAPRGGGRGGSRSDRGGGRSR [RBMX] | 5.34 ± 0.18 | 5.45 ± 0.28 | – | –
VNSNKVVMSGVKCSGTELSLAHCR [LOXL2] | 3.38 ± 1 | 2.95 ± 0.43 | – | –
FGGVIAFSSYNKQDNNCHFDAALV [SLC6A17] | 2.42 ± 0.32 | 2.43 ± 0.45 | – | –
SPPDQPAVPHPPPSTPIKLEEGDG [ADD1] | 5.56 ± 0.2 | 5.62 ± 0.18 | – | –
FGTQVENFSTFIKCIFTQFRIILG [PKD2L1] | 2.35 ± 0.058 | 2.24 ± 0.32 | – | –
QARRQQVKQYLSTTLGPKLASQAL [TFE3] | 2.95 ± 0.51 | 2.9 ± 0.23 | – | –
MPSPTDVVLPGAVSLRYSGATAAS [ADAMTS4] | 4.16 ± 0.3 | 4.25 ± 0.32 | – | –
EFIRDILIHPELNEGLMKWENRHE [ELF3] | 2 ± 0.27 | 2.3 ± 0.48 | – | –
VIRRLDETVVNRIAAGEVIQRPAN [MLH1] | – | 3.92 ± 0.28 | – | –

Sequence | protein stability index [1] | protein stability index [2] | protein stability index (treatment: DMSO, c terminus: native) | protein stability index (treatment: MLN4924 1 uM, 8 h, c terminus: native)
QKLQDVLHEALQDYEAGQHMEDPR [ESRRG] | 4.72 ± 0.34 | 5.13 ± 0.26 | – | –
IPDAFWWAVVTMTTVGYGDMKPIT [KCNA4] | 3.8 ± 0.42 | 3.53 ± 0.16 | – | –
GRSSMGTGLSGGKRPSQEEDTQSI [CRY1] | 5.51 ± 0.17 | 5.37 ± 0.29 | – | –
LKDWEHSIALRNISLAKGPPGPKG [SCARA5] | 3.68 ± 0.25 | 3.78 ± 0.36 | – | –
MPQYILREFKVTDARDGQSRTVRQ [PTPRD] | 3.75 ± 0.18 | 4.18 ± 0.27 | – | –
MKKAKEQLKIRKSNQIPTEVRSKA [FUNDC2] | 4.59 ± 0.34 | 4.76 ± 0.45 | – | –
AKGKVQAELSQPLTAGGAISELL [RBBP5] | – | – | 4.18 ± 0.3 | 3.91 ± 0.34
EQLIEAISNGDFESYTKMCDPGMT [CAMK2A] | 3.92 ± 0.28 | 3.76 ± 0.44 | – | –
NLQPPASLQTGNHSNGPTDLSMKG [NOL4L] | 4.66 ± 0.25 | 4.61 ± 0.21 | – | –
PLLSNTFTETNNHWPQGPTGPPGP [EMID1] | 3.53 ± 0.33 | 4.08 ± 0.14 | – | –
DTTRQVQRISCFQSTVKCLTVLQR [WDR41] | 2.42 ± 0.33 | 2.63 ± 0.35 | – | –
CHPVERGIKSKEAEEYRLKEHYLT [PSD2] | 4.21 ± 0.093 | 4.1 ± 0.2 | – | –
RIAAVEALCMLAQSSPSFAEKCLD [INTS4] | 2.46 ± 0.49 | 2.2 ± 0.53 | – | –
YKYCDHENAAFKDVALVLTVLLEE [TOR1AIP2] | 2.5 ± 0.43 | 2.8 ± 0.52 | – | –
KNWRNFASKWGMSYDELCFLEQRP [EDARADD] | 2.06 ± 0.18 | 2.02 ± 0.23 | – | –
FSHDLTLERKCEKRSVYIDARDEE [ZC3H15] | 4.47 ± 0.24 | 4.64 ± 0.34 | – | –
TAQSTFNDLQDLREQILRVKDTDD [RAP1B] | 5.01 ± 0.31 | 4.97 ± 0.27 | – | –
PPRREPLPSRRDVYLSPRDDGYST [RBMX] | 4.09 ± 0.16 | 4.23 ± 0.29 | – | –
PMKKNNNLYSWDDFMELGRSIPDT [ACSBG2] | 3.74 ± 0.24 | 3.77 ± 0.3 | – | –
APLGYKEPERQVQHEESTEGEADH [UFD1] | 5.55 ± 0.22 | 5.5 ± 0.3 | – | –
LDTERPVQKRARSGPQPRLPPCLL [TRIB3] | 3.89 ± 0.41 | 4.1 ± 0.3 | – | –
NTTCVGRYPVCKFPSLQVTAILIE [FEM1C] | 2.67 ± 0.48 | 2.23 ± 0.21 | – | –
AGDVIFLLSRINKDWLEGTVRGAT [NCF4] | 3.21 ± 0.31 | 3.2 ± 0.4 | – | –

Sequence | protein stability index [1] | protein stability index [2] | protein stability index (treatment: DMSO, c terminus: native) | protein stability index (treatment: MLN4924 1 uM, 8 h, c terminus: native)
DVRQNPCGSKACRRLFGPVDSEQL [CDKN1A] | 3.03 ± 0.2 | 3.12 ± 0.28 | – | –
RSVIEVPAVPEEILKRLLKEQHLW [DLC1] | 2.48 ± 0.36 | 2.69 ± 0.37 | – | –
GKPLIPPMNRRNILVMKHNYSQDA [NETO1] | 2.98 ± 0.4 | 3.31 ± 0.28 | – | –
PAGTPPPTARHFQEHPRQQLATSS [MOSPD3] | 4.74 ± 0.27 | 4.83 ± 0.17 | – | –
SRVLQNGGDKLETMPLYLEDDIRP [SCD] | 4.66 ± 0.23 | 4.53 ± 0.21 | – | –
MVRFKHRYLLCELVSDDPRCRLSL [POP5] | 2.56 ± 0.38 | 2.55 ± 0.58 | – | –
ELQSLMHQPKGLEEENAQLRGALQ [PBXIP1] | 4.25 ± 0.23 | 4.04 ± 0.29 | – | –
SHPRVQSGCDKEALLTGGGSENRN [RNF180] | 4.77 ± 0.31 | 4.65 ± 0.24 | – | –
SNFNYFYHRETEGEEQAQLLHVSS [KCNA1] | 3.95 ± 0.12 | 4.03 ± 0.34 | – | –
AQRSAHCSRPSGSSSSSGVLMVGP [CSNK1G1] | 3.65 ± 0.24 | 3.84 ± 0.14 | – | –
RFFGPNAEISQPPALSQLVNLYLG [TCF25] | 3.05 ± 0.19 | 2.96 ± 0.36 | – | –
WGPLQDSLEHTLRVAIAHYQDDPD [TSPAN10] | 3.54 ± 0.28 | 3.69 ± 0.22 | – | –
IASEWFLIANRSYKVSAASSFFFS [SLC22A15] | 3.03 ± 0.19 | 2.94 ± 0.42 | – | –
SLSNAVANTMEHLSLLDNNIPGNS [FBXO33] | 3.64 ± 0.092 | 3.94 ± 0.28 | – | –
RTHTGEKPYTCSVCGKSFSRTTCL [ZNF8] | 2.92 ± 0.31 | 3.35 ± 0.54 | – | –
NLEKTIFCLQKLISLHPFNPWNWG [C8orf76] | 2.53 ± 0.77 | 2.59 ± 0.5 | – | –
GRAGAVGTPGERGPPGPPGPPGPP [EMID1] | 4.6 ± 0.44 | 4.68 ± 0.22 | – | –
LESLQDGAAESPYSHLGGIDYKTT [RAB40A] | 4.44 ± 0.12 | 4.35 ± 0.11 | – | –
EYIDPETKKHIPYREHKSLTGTAR [CSNK1G1] | 4.15 ± 0.28 | 4.08 ± 0.42 | – | –
ANSDRASIGRRRTELRRSGSSRSP [PLEKHN1] | 4.79 ± 0.3 | 5.2 ± 0.21 | – | –
